One may read the Kd as the concentration at which binding is half-saturated.

Numbering of substitutions follows the chain as printed. Several values for one entry are separate records, joined by “and”; a condition that tells them apart may be missing. Equal entries are not always repeated. Non-standard residues stand in square brackets, D forms with d. No end group written: not given here. pY = N[C@@H](Cc1ccc(OP(=O)(O)O)cc1)C(=O)O; Rhodamine = not defined here

Among the data in paper PMC3433420, “Comprehensive Binary Interaction Mapping of SH2 Domains via Fluorescence Polarization Reveals Novel Functional Diversification of ErbB Receptors” (PLoS ONE, 2012) are Kd values, retold here.

Holding throughout (test): peptide or protein array; SH2/PTB proteins spotted on aldehyde slides, rhodamine peptide titrated in buffer B (20 mM HEPES, 100 mM KCl, 0.1% Tween-20, 5 mM DTT, pH 7.8), 1 h at room temperature; replicate assays
Holding throughout (settings): both partners purified

Assay [1] deals with T1, ZAP70 C-terminal SH2 domain (human, UniProt P43403 1-619).
T1 construct: ZAP70, human; source: bacterial expression, purified
T1 sequence (looked up): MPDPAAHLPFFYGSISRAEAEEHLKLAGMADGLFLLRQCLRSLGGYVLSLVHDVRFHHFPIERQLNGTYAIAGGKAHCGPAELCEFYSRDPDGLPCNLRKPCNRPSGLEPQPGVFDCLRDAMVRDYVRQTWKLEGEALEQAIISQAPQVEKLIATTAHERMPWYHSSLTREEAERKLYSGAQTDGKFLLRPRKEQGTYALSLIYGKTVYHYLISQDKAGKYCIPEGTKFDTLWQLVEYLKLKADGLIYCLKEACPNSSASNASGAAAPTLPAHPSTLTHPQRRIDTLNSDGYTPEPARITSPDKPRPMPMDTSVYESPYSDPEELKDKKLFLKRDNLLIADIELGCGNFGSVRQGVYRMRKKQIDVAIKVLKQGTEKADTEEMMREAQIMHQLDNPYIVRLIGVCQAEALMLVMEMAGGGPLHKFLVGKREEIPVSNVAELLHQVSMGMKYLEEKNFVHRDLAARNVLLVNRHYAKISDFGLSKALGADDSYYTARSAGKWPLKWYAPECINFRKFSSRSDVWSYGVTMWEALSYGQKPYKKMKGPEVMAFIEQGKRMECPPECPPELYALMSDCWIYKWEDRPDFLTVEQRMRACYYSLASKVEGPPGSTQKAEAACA

The target in assay [2] is T2, ABL1 SH2 domain (human, UniProt P00519 127-217).
T2 construct: ABL1, human; source: bacterial expression, purified
T2 sequence (looked up): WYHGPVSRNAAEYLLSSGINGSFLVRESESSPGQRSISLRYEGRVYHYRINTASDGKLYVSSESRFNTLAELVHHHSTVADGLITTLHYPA

Assay [3] addresses T3, ABL2 SH2 domain (human, UniProt P42684 173-263).
T3 construct: ABL2, human; source: bacterial expression, purified
T3 sequence (looked up): T2 sequence (looked up) with N9S, G18L, R35L, A53T, S54A, L58V, S61T, S62A, N67S, I84V

Assay [4] concerns the target T4, PIK3R3 C-terminal SH2 domain (human).
T4 construct: PIK3R3, human; source: bacterial expression, purified

Assay [5] has as its target T5, PLCG2 tandem SH2 domains (human).
T5 construct: PLCG2, human; also called PLCG2-NC; source: bacterial expression, purified
T5 sequence (P16885 whole entry, looked up): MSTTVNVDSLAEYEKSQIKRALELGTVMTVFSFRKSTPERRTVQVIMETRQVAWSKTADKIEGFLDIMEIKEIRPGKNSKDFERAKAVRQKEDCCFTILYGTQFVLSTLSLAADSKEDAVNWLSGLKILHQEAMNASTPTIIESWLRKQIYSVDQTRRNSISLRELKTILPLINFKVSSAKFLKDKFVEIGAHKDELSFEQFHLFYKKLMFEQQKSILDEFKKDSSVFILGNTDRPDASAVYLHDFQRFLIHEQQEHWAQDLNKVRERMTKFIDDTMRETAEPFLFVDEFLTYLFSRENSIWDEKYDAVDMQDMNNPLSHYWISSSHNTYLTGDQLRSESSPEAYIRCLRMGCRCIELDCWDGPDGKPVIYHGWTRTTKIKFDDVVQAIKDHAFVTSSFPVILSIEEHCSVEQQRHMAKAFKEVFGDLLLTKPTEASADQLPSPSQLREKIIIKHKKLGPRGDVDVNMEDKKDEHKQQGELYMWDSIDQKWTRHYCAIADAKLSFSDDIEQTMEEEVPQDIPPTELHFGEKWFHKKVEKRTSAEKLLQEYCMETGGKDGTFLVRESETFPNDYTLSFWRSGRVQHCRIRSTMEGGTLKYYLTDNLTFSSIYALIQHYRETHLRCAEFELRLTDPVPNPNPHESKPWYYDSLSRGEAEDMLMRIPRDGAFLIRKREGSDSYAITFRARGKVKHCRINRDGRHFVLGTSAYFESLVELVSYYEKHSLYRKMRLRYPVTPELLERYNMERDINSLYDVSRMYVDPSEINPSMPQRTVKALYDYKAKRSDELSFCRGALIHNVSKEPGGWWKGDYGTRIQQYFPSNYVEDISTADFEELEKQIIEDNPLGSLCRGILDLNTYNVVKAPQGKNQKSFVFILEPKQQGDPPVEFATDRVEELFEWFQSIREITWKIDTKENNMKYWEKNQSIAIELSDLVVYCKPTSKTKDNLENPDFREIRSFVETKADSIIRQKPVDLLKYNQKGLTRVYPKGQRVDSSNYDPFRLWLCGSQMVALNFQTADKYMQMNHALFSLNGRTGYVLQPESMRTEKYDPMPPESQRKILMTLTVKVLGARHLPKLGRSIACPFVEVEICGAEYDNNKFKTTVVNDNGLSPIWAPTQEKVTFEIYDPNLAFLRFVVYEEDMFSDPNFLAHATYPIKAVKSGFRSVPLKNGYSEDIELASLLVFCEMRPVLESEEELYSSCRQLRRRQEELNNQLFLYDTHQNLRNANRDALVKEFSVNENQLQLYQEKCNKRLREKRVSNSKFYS

Assay [6] concerns the target T6, SYK C-terminal SH2 domain (human).
T6 construct: SYK, human; source: bacterial expression, purified

B1: ErbB2 pY1127 phosphopeptide, rhodamine-labelled, for protein microarrays (peptide)
chain: Rhodamine-ETDG[pY]VAPLTCSD
modifications: reading uncertain
Regarding B1, the Kd in assay [1] is 2.2 µM and 3.21 µM; in assay [2], 0.529 µM and 0.301 µM; in assay [3] it was 0.017 µM and 0.0146 µM; in assay [4], 2.04 µM and 1.21 µM; in assay [5], 0.578 µM and 1.6 µM; in assay [6], 1.92 µM and 2.39 µM.
